Source: paper PMC6435701

How the values were obtained:
Myc-tagged ATAD3A = assay: co-immunoprecipitation (IP anti-Flag, WB anti-Myc), densitometry; conditions: HEK293 cells transfected for 48 h; five independent experiments; parent: est. 1.0; read off a plot
[1] = target: ATAD3A K135E (Flag-tagged); assay: non-reducing western blot of ATAD3A dimer (with or without β-ME), densitometry; conditions: HEK293 cells transfected for 48 h; at least 6 independent experiments; parent: est. 1.0; read off a plot
[2] = target: ATAD3A K135Q (Flag-tagged); assay: as above; conditions: HEK293 cells transfected for 48 h; at least 6 independent experiments; parent: est. 1.0; read off a plot

| ratio to parent (Myc-tagged ATAD3A) | ratio to parent [1] | ratio to parent [2] | Substance |
| --- | --- | --- | --- |
| 1.6 | 2.3 |  | ATAD3A-Flag wildtype (in HEK293 cells) K135E |
| 0.58 |  | 0.8 | ATAD3A-Flag wildtype (in HEK293 cells) K135Q |
